The target in data set [1] is T1, SPO-11 (Caenorhabditis elegans, UniProt Q22236 1-425).
T1 sequence: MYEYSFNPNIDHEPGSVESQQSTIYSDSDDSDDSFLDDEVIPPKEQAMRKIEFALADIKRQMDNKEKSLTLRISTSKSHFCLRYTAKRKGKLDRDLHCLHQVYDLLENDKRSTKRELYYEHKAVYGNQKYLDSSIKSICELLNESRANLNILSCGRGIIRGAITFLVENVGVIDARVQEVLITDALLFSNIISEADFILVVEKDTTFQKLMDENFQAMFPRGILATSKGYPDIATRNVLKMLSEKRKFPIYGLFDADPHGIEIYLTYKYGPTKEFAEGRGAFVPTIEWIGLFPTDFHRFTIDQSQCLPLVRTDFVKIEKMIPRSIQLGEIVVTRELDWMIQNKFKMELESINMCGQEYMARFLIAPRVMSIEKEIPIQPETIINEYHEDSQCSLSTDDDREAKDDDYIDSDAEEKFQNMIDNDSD
The data set is described as follows: EMSA; saturated at 4.8 uM SPO-11; EMSA: 42.5 mM Tris-HCl pH 7.5, 115 mM KCl, 1 mM DTT, 0.1 mg/ml BSA, 3% glycerol, 0.15 mM EDTA, 20 C, 30 min, 300 nM DNA (10 nM plasmid), agarose gel; SPR: same. Particulars: protein: recombinant; tags: none (His6-SUMO removed by Ulp1); blunt.

Data set [2] has as its target T1, SPO-11. Nature of the data set: EMSA; 2.4 uM SPO-11, 300 nM DNA; EMSA: 42.5 mM Tris-HCl pH 7.5, 115 mM KCl, 1 mM DTT, 0.1 mg/ml BSA, 3% glycerol, 0.15 mM EDTA, 20 C, 30 min, 300 nM DNA (10 nM plasmid), agarose gel; SPR: same. Particulars: protein: recombinant; tags: none (His6-SUMO removed by Ulp1); label: 3'-Cy5; blunt. For orientation: In EMSA bound probe runs differently from free probe, usually more slowly.

In data set [3] the target is T1, SPO-11. Nature of the data set: SPR; 20 C, steady-state affinity, no Mg2+; EMSA: 42.5 mM Tris-HCl pH 7.5, 115 mM KCl, 1 mM DTT, 0.1 mg/ml BSA, 3% glycerol, 0.15 mM EDTA, 20 C, 30 min, 300 nM DNA (10 nM plasmid), agarose gel; SPR: same. Conditions: protein: recombinant; tags: none (His6-SUMO removed by Ulp1); label: 5'-biotin; blunt.
Data set [4] addresses T1, SPO-11. The data set is described as follows: EMSA; 20 C, no Mg2+; EMSA: 42.5 mM Tris-HCl pH 7.5, 115 mM KCl, 1 mM DTT, 0.1 mg/ml BSA, 3% glycerol, 0.15 mM EDTA, 20 C, 30 min, 300 nM DNA (10 nM plasmid), agarose gel; SPR: same. Conditions: protein: recombinant; tags: none (His6-SUMO removed by Ulp1); blunt.
The target in data set [5] is T2, SPO-11 E202A/D255A (Caenorhabditis elegans, UniProt Q22236 1-425, E202A;D255A).
T2 sequence: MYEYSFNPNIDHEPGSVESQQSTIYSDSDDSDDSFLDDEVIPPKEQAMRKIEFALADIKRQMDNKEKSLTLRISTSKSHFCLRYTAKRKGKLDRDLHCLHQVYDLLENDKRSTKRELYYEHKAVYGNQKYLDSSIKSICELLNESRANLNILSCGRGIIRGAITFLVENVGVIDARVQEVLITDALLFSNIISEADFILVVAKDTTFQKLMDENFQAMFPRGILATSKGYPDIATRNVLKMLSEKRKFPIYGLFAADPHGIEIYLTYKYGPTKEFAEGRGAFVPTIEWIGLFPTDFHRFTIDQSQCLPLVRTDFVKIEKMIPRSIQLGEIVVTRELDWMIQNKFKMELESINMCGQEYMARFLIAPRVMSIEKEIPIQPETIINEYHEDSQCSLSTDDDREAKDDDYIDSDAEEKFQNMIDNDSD
The data set is described as follows: EMSA; with Mg2+; as proficient as WT; EMSA: 42.5 mM Tris-HCl pH 7.5, 115 mM KCl, 1 mM DTT, 0.1 mg/ml BSA, 3% glycerol, 0.15 mM EDTA, 20 C, 30 min, 300 nM DNA (10 nM plasmid), agarose gel; SPR: same. Particulars: protein: recombinant; tags: none (His6-SUMO removed by Ulp1); blunt.

Data set [6] addresses T3, SPO-11 E202A (Caenorhabditis elegans, UniProt Q22236 1-425, E202A).
T3 sequence: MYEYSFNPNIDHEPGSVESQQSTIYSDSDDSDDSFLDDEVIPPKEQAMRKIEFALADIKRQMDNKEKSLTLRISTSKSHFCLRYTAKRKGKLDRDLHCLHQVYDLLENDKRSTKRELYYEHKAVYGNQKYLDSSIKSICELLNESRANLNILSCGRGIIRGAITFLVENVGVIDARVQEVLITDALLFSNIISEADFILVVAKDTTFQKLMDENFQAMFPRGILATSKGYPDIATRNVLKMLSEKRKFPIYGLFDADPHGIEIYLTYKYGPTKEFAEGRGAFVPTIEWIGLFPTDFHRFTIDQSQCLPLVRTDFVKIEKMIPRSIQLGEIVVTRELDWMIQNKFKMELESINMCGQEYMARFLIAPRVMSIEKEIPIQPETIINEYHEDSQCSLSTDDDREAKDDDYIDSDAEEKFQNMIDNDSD
The description is as above. Conditions: protein: recombinant; tags: none (His6-SUMO removed by Ulp1); blunt.

Data set [7] addresses T4, SPO-11 Y118F/Y119F (Caenorhabditis elegans, UniProt Q22236 1-425, Y118F;Y119F).
T4 sequence: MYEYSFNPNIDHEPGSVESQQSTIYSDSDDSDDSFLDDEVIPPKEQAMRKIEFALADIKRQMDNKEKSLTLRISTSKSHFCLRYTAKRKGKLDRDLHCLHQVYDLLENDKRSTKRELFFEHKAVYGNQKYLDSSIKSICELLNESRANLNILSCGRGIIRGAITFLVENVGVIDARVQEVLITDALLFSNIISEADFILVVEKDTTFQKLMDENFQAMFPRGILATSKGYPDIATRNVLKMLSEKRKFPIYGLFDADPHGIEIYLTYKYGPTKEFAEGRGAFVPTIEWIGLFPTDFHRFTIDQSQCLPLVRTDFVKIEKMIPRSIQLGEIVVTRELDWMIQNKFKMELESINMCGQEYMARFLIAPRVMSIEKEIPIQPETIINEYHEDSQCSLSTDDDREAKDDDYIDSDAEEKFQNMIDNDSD
Nature of the data set: EMSA; as proficient as WT; EMSA: 42.5 mM Tris-HCl pH 7.5, 115 mM KCl, 1 mM DTT, 0.1 mg/ml BSA, 3% glycerol, 0.15 mM EDTA, 20 C, 30 min, 300 nM DNA (10 nM plasmid), agarose gel; SPR: same. Conditions: protein: recombinant; tags: none (His6-SUMO removed by Ulp1); blunt.

Data set [8] concerns the target T5, SPO-11 Y119F (Caenorhabditis elegans, UniProt Q22236 1-425, Y119F).
T5 sequence: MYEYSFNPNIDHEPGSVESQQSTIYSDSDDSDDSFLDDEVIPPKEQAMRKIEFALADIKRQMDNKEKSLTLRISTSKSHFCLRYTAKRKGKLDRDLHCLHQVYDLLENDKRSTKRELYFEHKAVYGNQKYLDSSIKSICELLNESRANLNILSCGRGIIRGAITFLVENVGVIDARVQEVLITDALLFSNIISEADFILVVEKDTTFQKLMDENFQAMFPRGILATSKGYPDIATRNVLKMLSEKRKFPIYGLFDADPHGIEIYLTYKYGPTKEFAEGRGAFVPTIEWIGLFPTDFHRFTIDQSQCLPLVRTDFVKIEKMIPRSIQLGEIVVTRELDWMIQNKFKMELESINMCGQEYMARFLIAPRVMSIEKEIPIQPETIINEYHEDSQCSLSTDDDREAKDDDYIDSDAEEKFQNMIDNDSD
The data set is described as above. Particulars: protein: recombinant; tags: none (His6-SUMO removed by Ulp1); blunt.

For data set [9], the target named is T6, SPO-11 G290D (Caenorhabditis elegans, UniProt Q22236 1-425, G290D).
T6 sequence: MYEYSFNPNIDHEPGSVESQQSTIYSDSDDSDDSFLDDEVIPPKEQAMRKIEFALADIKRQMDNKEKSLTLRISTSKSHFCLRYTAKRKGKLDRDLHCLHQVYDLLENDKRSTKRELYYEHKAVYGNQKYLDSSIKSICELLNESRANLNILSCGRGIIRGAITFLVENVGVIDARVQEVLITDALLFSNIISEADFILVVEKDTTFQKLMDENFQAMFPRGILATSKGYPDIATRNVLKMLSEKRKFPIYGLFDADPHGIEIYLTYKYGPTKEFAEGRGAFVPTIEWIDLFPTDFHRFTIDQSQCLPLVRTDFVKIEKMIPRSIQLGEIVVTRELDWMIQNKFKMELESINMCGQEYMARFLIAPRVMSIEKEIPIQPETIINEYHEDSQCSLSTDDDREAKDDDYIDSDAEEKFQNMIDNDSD
Nature of the data set: EMSA; 20 C; EMSA: 42.5 mM Tris-HCl pH 7.5, 115 mM KCl, 1 mM DTT, 0.1 mg/ml BSA, 3% glycerol, 0.15 mM EDTA, 20 C, 30 min, 300 nM DNA (10 nM plasmid), agarose gel; SPR: same. Conditions: protein: recombinant; tags: none (His6-SUMO removed by Ulp1); blunt.

B1: 80 bp dsDNA (dsDNA)
DNA 1: TTATGTTCATTTTTTATATCCTTTACTTTATTTTCTCTGTTTATTCATTTACTTATTTTGTATTATCCTTATCTTATTTA
DNA 2: TAAATAAGATAAGGATAATACAAAATAAGTAAATGAATAAACAGAGAAAATAAAGTAAAGGATATAAAAAATGAACATAA
Take B1: in [1], the binding result was “binds”.

B2: 80 bp dsDNA, Cy5 (dsDNA)
DNA 1: TTATGTTCATTTTTTATATCCTTTACTTTATTTTCTCTGTTTATTCATTTACTTATTTTGTATTATCCTTATCTTATTTA
DNA 2: TAAATAAGATAAGGATAATACAAAATAAGTAAATGAATAAACAGAGAAAATAAAGTAAAGGATATAAAAAATGAACATAA
modifications: 3'-Cy5 on strand 1
On to B2, for which the binding result in data set [2] is reported as “binds”.

B3: 100 bp dsDNA, 5'-biotin (dsDNA)
DNA 1: AATATGATAGATAATGATAGTGATGAGGGACGTGGATCTCTTCTTACCTGCGGAGACGTCGAGGAGAACCCAGGACCAGGGGTACCTATGGCCTCCTCCG
DNA 2: CGGAGGAGGCCATAGGTACCCCTGGTCCTGGGTTCTCCTCGACGTCTCCGCAGGTAAGAAGAGATCCACGTCCCTCATCACTATCATTATCTATCATATT
modifications: 5'-biotin (strand not stated)
The term Kd denotes a measure of binding affinity in units of concentration. On to B3, for which the Kd in data set [3] is about 470 nM.

B4: 100 bp dsDNA (dsDNA)
DNA 1: AATATGATAGATAATGATAGTGATGAGGGACGTGGATCTCTTCTTACCTGCGGAGACGTCGAGGAGAACCCAGGACCAGGGGTACCTATGGCCTCCTCCG
DNA 2: CGGAGGAGGCCATAGGTACCCCTGGTCCTGGGTTCTCCTCGACGTCTCCGCAGGTAAGAAGAGATCCACGTCCCTCATCACTATCATTATCTATCATATT
For B4, the binding result in data set [4] was “binds”; in data set [5], “binds”; in data set [6] it was “binds”; in data set [7], “binds”; in data set [8] it was “binds”; in data set [9], “no binding”.

The record behind these values is paper PMC5443798, “Functional characterization of the meiosis-specific DNA double-strand break inducing factor SPO-11 from C. elegans”.
